Test results published in the supplement of paper PMC10567573.

B1: MYBL2 (parent)
chain: FPNRTDQQCQYRWLRVLNPDLVKG
B2: PTPRD (parent)
chain: PVVSMDLDPQPITDEEEGLIWVVG

Variants of: B1
Experiment: protein stability index of a GFP-peptide fusion (GPS, HEK-293T) (PSI 1-6); higher = more stable
Conditions: c terminus: a fixed tail appended
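Further: lentivirally expressed fusions sorted by FACS into six bins by GFP to DsRed ratio, PSI derived from sequencing read proportions per bin multiplied by bin number.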

Variant	protein stability index
FPNRTDQQCQYRWLRVLNDDLVKG [P19D]	1.97
FPNRTDQQCQYRWLRVLNEDLVKG [P19E]	1.85
FPNRTDQQCQYRWLRVLNFDLVKG [P19F]	1.45
FPNRTDQQCQYRWLRVLNGDLVKG [P19G]	2.26
FPNRTDQQCQYRWLRVLNHDLVKG [P19H]	2.22
FPNRTDQQCQYRWLRVLNIDLVKG [P19I]	2.11
FPNRTDQQCQYRWLRVLNKDLVKG [P19K]	2.36
FPNRTDQQCQYRWLRVLNLDLVKG [P19L]	1.76
FPNRTDQQCQYRWLRVLNMDLVKG [P19M]	2.2
FPNRTDQQCQYRWLRVLNNDLVKG [P19N]	2.01
FPNRTDQQCQYRWLRVLNQDLVKG [P19Q]	1.94
FPNRTDQQCQYRWLRVLNRDLVKG [P19R]	1.84
FPNRTDQQCQYRWLRVLNSDLVKG [P19S]	2.06
FPNRTDQQCQYRWLRVLNTDLVKG [P19T]	1.67
FPNRTDQQCQYRWLRVLNVDLVKG [P19V]	1.94
FPNRTDQQCQYRWLRVLNWDLVKG [P19W]	1.63
FPNRTDQQCQYRWLRVLNYDLVKG [P19Y]	2.02
FPNRTDQQCQYRWLRVLNPALVKG [D20A]	2.13
FPNRTDQQCQYRWLRVLNPCLVKG [D20C]	1.83
FPNRTDQQCQYRWLRVLNPELVKG [D20E]	2.03
FPNRTDQQCQYRWLRVLNPFLVKG [D20F]	1.68
FPNRTDQQCQYRWLRVLNPGLVKG [D20G]	1.6
FPNRTDQQCQYRWLRVLNPHLVKG [D20H]	2.06

Variant	protein stability index
FPNRTDQQCQYRWLRVLNPILVKG [D20I]	1.74
FPNRTDQQCQYRWLRVLNPKLVKG [D20K]	2.06
FPNRTDQQCQYRWLRVLNPLLVKG [D20L]	1.7
FPNRTDQQCQYRWLRVLNPMLVKG [D20M]	1.89
FPNRTDQQCQYRWLRVLNPNLVKG [D20N]	2.43
FPNRTDQQCQYRWLRVLNPPLVKG [D20P]	2.35
FPNRTDQQCQYRWLRVLNPQLVKG [D20Q]	1.78
FPNRTDQQCQYRWLRVLNPRLVKG [D20R]	2.22
FPNRTDQQCQYRWLRVLNPSLVKG [D20S]	2.24
FPNRTDQQCQYRWLRVLNPTLVKG [D20T]	1.54
FPNRTDQQCQYRWLRVLNPVLVKG [D20V]	1.14
FPNRTDQQCQYRWLRVLNPWLVKG [D20W]	2.27
FPNRTDQQCQYRWLRVLNPYLVKG [D20Y]	1.76
FPNRTDQQCQYRWLRVLNPDAVKG [L21A]	1.88
FPNRTDQQCQYRWLRVLNPDCVKG [L21C]	2.18
FPNRTDQQCQYRWLRVLNPDDVKG [L21D]	2.12
FPNRTDQQCQYRWLRVLNPDEVKG [L21E]	2.43
FPNRTDQQCQYRWLRVLNPDFVKG [L21F]	2.26
FPNRTDQQCQYRWLRVLNPDGVKG [L21G]	1.66
FPNRTDQQCQYRWLRVLNPDHVKG [L21H]	1.48
FPNRTDQQCQYRWLRVLNPDIVKG [L21I]	2.85
FPNRTDQQCQYRWLRVLNPDKVKG [L21K]	2.01
FPNRTDQQCQYRWLRVLNPDMVKG [L21M]	2.27

Variant	protein stability index
FPNRTDQQCQYRWLRVLNPDNVKG [L21N]	2.37
FPNRTDQQCQYRWLRVLNPDPVKG [L21P]	2.83
FPNRTDQQCQYRWLRVLNPDQVKG [L21Q]	2.08
FPNRTDQQCQYRWLRVLNPDRVKG [L21R]	2.31
FPNRTDQQCQYRWLRVLNPDSVKG [L21S]	2.17
FPNRTDQQCQYRWLRVLNPDTVKG [L21T]	2.26
FPNRTDQQCQYRWLRVLNPDVVKG [L21V]	2.26
FPNRTDQQCQYRWLRVLNPDWVKG [L21W]	1.91
FPNRTDQQCQYRWLRVLNPDYVKG [L21Y]	1.98
FPNRTDQQCQYRWLRVLNPDLAKG [V22A]	1.71
FPNRTDQQCQYRWLRVLNPDLCKG [V22C]	1.79
FPNRTDQQCQYRWLRVLNPDLDKG [V22D]	2.02
FPNRTDQQCQYRWLRVLNPDLEKG [V22E]	1.55
FPNRTDQQCQYRWLRVLNPDLFKG [V22F]	1.59
FPNRTDQQCQYRWLRVLNPDLGKG [V22G]	2
FPNRTDQQCQYRWLRVLNPDLHKG [V22H]	2.74
FPNRTDQQCQYRWLRVLNPDLIKG [V22I]	2.04
FPNRTDQQCQYRWLRVLNPDLKKG [V22K]	1.64
FPNRTDQQCQYRWLRVLNPDLLKG [V22L]	2.21
FPNRTDQQCQYRWLRVLNPDLMKG [V22M]	2.08
FPNRTDQQCQYRWLRVLNPDLNKG [V22N]	2.01
FPNRTDQQCQYRWLRVLNPDLPKG [V22P]	1.83
FPNRTDQQCQYRWLRVLNPDLQKG [V22Q]	1.54

Variant	protein stability index
FPNRTDQQCQYRWLRVLNPDLRKG [V22R]	1.66
FPNRTDQQCQYRWLRVLNPDLSKG [V22S]	2.25
FPNRTDQQCQYRWLRVLNPDLTKG [V22T]	1.95
FPNRTDQQCQYRWLRVLNPDLWKG [V22W]	2.11
FPNRTDQQCQYRWLRVLNPDLYKG [V22Y]	2.01
FPNRTDQQCQYRWLRVLNPDLVAG [K23A]	1.22
FPNRTDQQCQYRWLRVLNPDLVCG [K23C]	3.33
FPNRTDQQCQYRWLRVLNPDLVDG [K23D]	1.97
FPNRTDQQCQYRWLRVLNPDLVEG [K23E]	1.89
FPNRTDQQCQYRWLRVLNPDLVFG [K23F]	2.47
FPNRTDQQCQYRWLRVLNPDLVGG [K23G]	1.8
FPNRTDQQCQYRWLRVLNPDLVHG [K23H]	1.7
FPNRTDQQCQYRWLRVLNPDLVIG [K23I]	1.95
FPNRTDQQCQYRWLRVLNPDLVLG [K23L]	1.64
FPNRTDQQCQYRWLRVLNPDLVMG [K23M]	1.5
FPNRTDQQCQYRWLRVLNPDLVNG [K23N]	2.11
FPNRTDQQCQYRWLRVLNPDLVPG [K23P]	2.06
FPNRTDQQCQYRWLRVLNPDLVQG [K23Q]	2.1
FPNRTDQQCQYRWLRVLNPDLVRG [K23R]	2.21
FPNRTDQQCQYRWLRVLNPDLVSG [K23S]	1.26
FPNRTDQQCQYRWLRVLNPDLVTG [K23T]	1.59
FPNRTDQQCQYRWLRVLNPDLVVG [K23V]	1.4
FPNRTDQQCQYRWLRVLNPDLVWG [K23W]	1.27

Variant	protein stability index
FPNRTDQQCQYRWLRVLNPDLVYG [K23Y]	1.38
FPNRTDQQCQYRWLRVLNPDLVKA [G24A]	1.41
FPNRTDQQCQYRWLRVLNPDLVKC [G24C]	1.89
FPNRTDQQCQYRWLRVLNPDLVKD [G24D]	1.94
FPNRTDQQCQYRWLRVLNPDLVKE [G24E]	2.02
FPNRTDQQCQYRWLRVLNPDLVKF [G24F]	1.85
FPNRTDQQCQYRWLRVLNPDLVKH [G24H]	1.41
FPNRTDQQCQYRWLRVLNPDLVKI [G24I]	1.43
FPNRTDQQCQYRWLRVLNPDLVKK [G24K]	2.01
FPNRTDQQCQYRWLRVLNPDLVKL [G24L]	2.35
FPNRTDQQCQYRWLRVLNPDLVKM [G24M]	2.18
FPNRTDQQCQYRWLRVLNPDLVKN [G24N]	2.44
FPNRTDQQCQYRWLRVLNPDLVKP [G24P]	2.26
FPNRTDQQCQYRWLRVLNPDLVKQ [G24Q]	1.91
FPNRTDQQCQYRWLRVLNPDLVKR [G24R]	1.74
FPNRTDQQCQYRWLRVLNPDLVKS [G24S]	1.68
FPNRTDQQCQYRWLRVLNPDLVKT [G24T]	1.87
FPNRTDQQCQYRWLRVLNPDLVKV [G24V]	1.71
FPNRTDQQCQYRWLRVLNPDLVKW [G24W]	1.55
FPNRTDQQCQYRWLRVLNPDLVKY [G24Y]	1.85

Variants of: B2
Experiment: as above
Conditions: c terminus: a fixed tail appended

Variant	protein stability index
CVVSMDLDPQPITDEEEGLIWVVG [P1C]	3.12
DVVSMDLDPQPITDEEEGLIWVVG [P1D]	4.28
EVVSMDLDPQPITDEEEGLIWVVG [P1E]	3.2
FVVSMDLDPQPITDEEEGLIWVVG [P1F]	1.19
GVVSMDLDPQPITDEEEGLIWVVG [P1G]	3.77
HVVSMDLDPQPITDEEEGLIWVVG [P1H]	3.02
LVVSMDLDPQPITDEEEGLIWVVG [P1L]	1.79
NVVSMDLDPQPITDEEEGLIWVVG [P1N]	3.58
QVVSMDLDPQPITDEEEGLIWVVG [P1Q]	3.81
RVVSMDLDPQPITDEEEGLIWVVG [P1R]	2.62
TVVSMDLDPQPITDEEEGLIWVVG [P1T]	2.22
VVVSMDLDPQPITDEEEGLIWVVG [P1V]	1.86
WVVSMDLDPQPITDEEEGLIWVVG [P1W]	2.17
YVVSMDLDPQPITDEEEGLIWVVG [P1Y]	1.52
PAVSMDLDPQPITDEEEGLIWVVG [V2A]	4.31
PCVSMDLDPQPITDEEEGLIWVVG [V2C]	4.26
PDVSMDLDPQPITDEEEGLIWVVG [V2D]	3.95
PEVSMDLDPQPITDEEEGLIWVVG [V2E]	4.23
PFVSMDLDPQPITDEEEGLIWVVG [V2F]	3.16
PGVSMDLDPQPITDEEEGLIWVVG [V2G]	4.23
PHVSMDLDPQPITDEEEGLIWVVG [V2H]	3.67
PIVSMDLDPQPITDEEEGLIWVVG [V2I]	3.05
PKVSMDLDPQPITDEEEGLIWVVG [V2K]	2.77
PLVSMDLDPQPITDEEEGLIWVVG [V2L]	3.93
PMVSMDLDPQPITDEEEGLIWVVG [V2M]	4.2
PNVSMDLDPQPITDEEEGLIWVVG [V2N]	3.84

Variant	protein stability index
PPVSMDLDPQPITDEEEGLIWVVG [V2P]	4.05
PQVSMDLDPQPITDEEEGLIWVVG [V2Q]	3.94
PRVSMDLDPQPITDEEEGLIWVVG [V2R]	4.6
PSVSMDLDPQPITDEEEGLIWVVG [V2S]	4.51
PTVSMDLDPQPITDEEEGLIWVVG [V2T]	4.09
PYVSMDLDPQPITDEEEGLIWVVG [V2Y]	3.56
PVASMDLDPQPITDEEEGLIWVVG [V3A]	3.17
PVDSMDLDPQPITDEEEGLIWVVG [V3D]	3.91
PVESMDLDPQPITDEEEGLIWVVG [V3E]	4.81
PVFSMDLDPQPITDEEEGLIWVVG [V3F]	3.86
PVGSMDLDPQPITDEEEGLIWVVG [V3G]	3.98
PVHSMDLDPQPITDEEEGLIWVVG [V3H]	3.38
PVISMDLDPQPITDEEEGLIWVVG [V3I]	3.49
PVKSMDLDPQPITDEEEGLIWVVG [V3K]	3.48
PVLSMDLDPQPITDEEEGLIWVVG [V3L]	3.74
PVMSMDLDPQPITDEEEGLIWVVG [V3M]	3.61
PVNSMDLDPQPITDEEEGLIWVVG [V3N]	3.92
PVPSMDLDPQPITDEEEGLIWVVG [V3P]	3.82
PVQSMDLDPQPITDEEEGLIWVVG [V3Q]	3.87
PVSSMDLDPQPITDEEEGLIWVVG [V3S]	3.18
PVTSMDLDPQPITDEEEGLIWVVG [V3T]	4.66
PVWSMDLDPQPITDEEEGLIWVVG [V3W]	4.09
PVYSMDLDPQPITDEEEGLIWVVG [V3Y]	3.88
PVVCMDLDPQPITDEEEGLIWVVG [S4C]	3.56
PVVDMDLDPQPITDEEEGLIWVVG [S4D]	3.92
PVVEMDLDPQPITDEEEGLIWVVG [S4E]	5.11

Variant	protein stability index
PVVFMDLDPQPITDEEEGLIWVVG [S4F]	2.65
PVVGMDLDPQPITDEEEGLIWVVG [S4G]	4.17
PVVHMDLDPQPITDEEEGLIWVVG [S4H]	3.31
PVVIMDLDPQPITDEEEGLIWVVG [S4I]	2.28
PVVLMDLDPQPITDEEEGLIWVVG [S4L]	2.89
PVVMMDLDPQPITDEEEGLIWVVG [S4M]	2.75
PVVNMDLDPQPITDEEEGLIWVVG [S4N]	4.01
PVVPMDLDPQPITDEEEGLIWVVG [S4P]	4.45
PVVQMDLDPQPITDEEEGLIWVVG [S4Q]	4.02
PVVRMDLDPQPITDEEEGLIWVVG [S4R]	3.82
PVVTMDLDPQPITDEEEGLIWVVG [S4T]	3.73
PVVVMDLDPQPITDEEEGLIWVVG [S4V]	2.42
PVVWMDLDPQPITDEEEGLIWVVG [S4W]	1.83
PVVYMDLDPQPITDEEEGLIWVVG [S4Y]	1.99
PVVSADLDPQPITDEEEGLIWVVG [M5A]	4.97
PVVSCDLDPQPITDEEEGLIWVVG [M5C]	4.64
PVVSDDLDPQPITDEEEGLIWVVG [M5D]	4.71
PVVSFDLDPQPITDEEEGLIWVVG [M5F]	3.48
PVVSGDLDPQPITDEEEGLIWVVG [M5G]	5.16
PVVSHDLDPQPITDEEEGLIWVVG [M5H]	4.66
PVVSKDLDPQPITDEEEGLIWVVG [M5K]	4.64
PVVSLDLDPQPITDEEEGLIWVVG [M5L]	3.97
PVVSNDLDPQPITDEEEGLIWVVG [M5N]	4.7
PVVSQDLDPQPITDEEEGLIWVVG [M5Q]	4.62
